# According to patent US20170173114A1, “METHODS AND COMPOSITIONS FOR INDUCTION OF UCP1 EXPRESSION” (Joslin Diabetes Center, Inc., priority 2014, published 2017):
# Entries after “also recorded” stand apart in the source; their conditions may differ.
# What was measured:
# [1] = tested on: 3T3-F442A white preadipocytes; experiment: 2-deoxy-[3H]glucose uptake in 3T3-F442A white preadipocytes; type: cell-based; settings: FGF6 overexpressing vs control and EGF
# Procedure: (§1) The following glucose uptake assay was used to determine whether FGF6 could impact cellular glucose uptake. Specifically, glucose uptake was monitored in WT-1 brown preadipocytes and 3T3-F442A white preadipocytes in the presence or absence of FGF6. After serum starvation in DMEM/H medium containing 1% of BSA for 2-3 h, cells were washed with HEPES buffer and then incubated with or without 100 nM insulin for 30 min in DMEM/H medium containing 1% of BSA. Glucose transport was determined by the addition of 2-deoxy-[3H]glucose (0.1 mM, 0.5 μCi/mL; PerkinElmer Life and Analytical Science, Waltham, Mass.). After 5 minutes of incubation, the reaction was stopped by ice-cold PBS and cells were washed twice with ice-cold PBS. Cells were then lysed in 0.1% SDS, and glucose uptake was assessed in 4 mL of scintillant using Beckman LS6500 scintillation counter (Beckman Coulter, Indianapolis Ind.). Nonspecific 2-deoxy-[3H]glucose uptake was measured in the presence of cytochalasin B (20 μM) and was subtracted from the total uptake to get specific glucose uptake. Results were expressed as the mean±s.e.m. of the indicated number of experiments. The protein content was determined by the Bradford method.
# [2] = Glucose levels after subcutaneous injection in Chow or high fat diet mice; type: in vivo, C57BL6 mice; settings: 0.5 mg/kg subcutaneous; vs buffer
# Procedure: To determine whether induction of UCP1 and mitochondrial activity by FGF6 could lead to increased nutrient utilization and lower blood glucose or fatty acid in obese mice, diet-induced obese (DIO) mice were treated with recombinant FGF6, and glucose levels were monitored after injection. Specifically, C57BL6 mice (11 weeks) were fed on either a high fat diet (HFD) or a Chow diet (a regular animal diet as a control) and were injected subcutaneously with 0.5 mg/kg recombinant FGF6 (n=5) or buffer (n=5). Glucose levels were measured every 6 hours after injection.
# [3] = tested on: WT-1 brown preadipocytes; experiment: 2-deoxy-[3H]glucose uptake in WT-1 brown preadipocytes; type: cell-based, murine; settings: FGF6 overexpressing vs control and EGF
# Procedure: as §1
# The role of PGs in regulating mitochondrial function and cellular glucose uptake was also assessed. […]
# [4] = Insulin tolerance test in Chow or high fat diet mice; type: in vivo, C57BL6 mice; settings: Chow or HFD mice, 0.5 mg/kg FGF6 s.c. and 1.5 U insulin per kg
# Procedure: In addition to testing the impact of FGF6 on glucose tolerance, an insulin tolerance test was also performed using Chow fed and Obese (HFD) mice. Animals were fasted for two hours before receiving an intraperitoneal dose of 1.5 IU of recombinant human insulin (Humalog; Eli Lilly and Company, Indianapolis, Ind.). Blood samples were collected from the tail vein for measurement of blood glucose levels using a glucometer before and 15, 30, and 60 min after injections of FGF6 and the buffer control.
# [5] = tested on: UCP1; experiment: Marker mRNA expression and culture media acidification in mature brown adipocytes; type: cell-based, murine; settings: seven days
# Procedure: The effect of FGF6 on murine mature brown adipocytes was also examined. Mature brown adipocytes were treated with FGF6 in growth media (DMEM+10% FBS), a vehicle control (buffer) (“buffer” referred to in FIG. 22), or BMP7 for seven days. Following the treatment, cells were examined for the color of the culture media in combination with oil Red O staining, expression of adipogenic markers, and expression of brown fat markers.
# mRNA expression of UCP1, PPARγ, PTGS2, NDST3 and SIRT1 was measured in the mature adipocytes exposed to either the control, BMP7, or FGF6.
# [6] = tested on: UCP1; experiment: UCP1 mRNA expression in C2C12 myogenic progenitors; type: cell-based; settings: three days
# [7] = Glucose tolerance test in Chow or high fat diet mice; type: in vivo, C57BL6 mice; settings: Chow or HFD mice, i.p. glucose 2 mg/g after 16 h fast; particularly in obese HFD mice
# Procedure: C57BL6 mice were fed either the Chow diet or a high fat diet (HFD) and were fasted overnight (16 h) prior to intraperitoneal injection of 2 mg/g body weight of glucose using a 20% (w/v) solution.
molecule,measurement,setting,value
"FGF6: fibroblast growth factor 6; recombinant human FGF from R&D Systems, or mouse FGF6 cDNA overexpressed by lentiviral vector (protein) KRQRRLYCNVGIGFHLQVLPDGRISGTHEENPYSLLEISTVERGVVSLFGVRSALFVAMNSKGRLYATPSFQEECKFRETLLPNNYNAYESDLYQGTYIALSKYGRVKRGSKVSPIMTVTHFLPRI",glucose uptake level in F442A (white) preadipocytes,[1],increased
same,"glucose level, Chow diet mice",[2],reduction in glucose levels; also recorded: lowers glucose levels
same,"glucose level, high fat diet (obese) mice",[2],lowers glucose levels
same,glucose uptake level in WT-1 (brown) preadipocytes,[3],increased
same,glucose levels in insulin tolerance test (insulin sensitivity),[4],lower levels of glucose; also recorded: enhanced insulin sensitivity
same,"acidification of cell culture media, mature brown adipocytes",[5],no acidification of cell culture media
same,UCP1 mRNA expression in mature adipocytes,[5]; vs buffer or BMP7,does not induce
same,UCP1 mRNA expression in C2C12 myogenic progenitors,[6],neither FGF6 nor FGF21 induced UCP1 mRNA expression; also recorded: no induction of UCP1
same,glucose tolerance,[7],enhanced glucose tolerance; also recorded: improved glucose tolerance
